Results: patent publication US9999687B2, “Fluorescent imaging agents” (VisEn Medical, Inc., priority 2008, dated 2018)
One block for each substance: values may come before it. [ ]: non-standard residue; d: D form. Cha = N[C@@H](CC1CCCCC1)C(=O)O; F5 = not defined here; βAla = NCCC(=O)O

Legend:
[1] = system: activated humanized rabbit Cathepsin K; experiment: Enzyme activation profile of Q92 and Q93, Cathepsin K; assay type: biochemical; details: probe 0.5 μM, enzyme 0.05 μM, room temperature, 0-24 hours; panel also Cathepsin B, L, MMP-2, MMP-9; FIG. 6
Experimental: The reactions were performed with appropriate buffer at room temperature in a 96-well plate with a final assay volume of 250 μL and probe and enzyme concentrations of 0.5 μM and 0.05 μM respectively. The buffer for activated humanized rabbit Cathepsin K (Merck) was 50 mM MES (pH 5.0), 2.5 mM EDTA, 2.5 mM DTT. The buffer for Cathepsin B was 25 mM MES (pH 5.0), 1 mM DTT. The recombinant human Cathepsin B (R&D Systems) was activated in buffer of 25 mM MES (pH 5.0) and 5 mM DTT for 15 minutes at room temperature. The recombinant human Cathepsin L (R&D Systems) was activated in buffer of 50 mM MES (pH 6.0), 5 mM DTT, for 15 minutes on ice. The buffer for MMP-2 (BIOMOL) and MMP-9 (BIOMOL) was 50 mM Tris (pH 7.5), 10 mM CaCl2, 150 mM NaCl, and 0.05% Brij-35 detergent. The plate was incubated at room temperature and the activity was monitored at 0, 1, 3, 5, and 24 hours with a Gemini (Molecular Devices) plate reader at excitation wavelength 663 nm, emission 690 nm, and cut off 665 nm. The released fluorescent unit was determined by subtracting the fluorescence of the probe alone from the total fluorescence.

[2] = system: ovariectomized mice, tibia region; experiment: Bone imaging, ovariectomy induced osteoporosis; assay type: in vivo, BALB/c female mice; details: intravenous, 4 and 24 hours post-injection, fluorescence molecular tomography; FIG. 7
Experimental: BALB/c female mice 7 weeks old (Charles River Laboratory, Wilmington, Mass.) were subjected to ovariectomy or sham surgery to induce osteoporosis. After one to two weeks after surgery, the mice were injected intravenously with imaging agent [F5]-His-Gly-Pro-Asn-Lys(F5)-[PEG20kDa] (SEQ ID NO:427) (Agent Q94). Imaging was conducted at various time points using a Fluorescence Molecular Tomography system (VisEn Medical, Bedford, Mass.).

[3] = target: T1, recombinant human Renin (rhRenin) (Homo sapiens, UniProt P00797); experiment: Enzyme activation profile of R agents, renin; assay type: biochemical; details: probe 1 μM, enzyme 100 nM, 37 C, 24 hours; FIG. 11
T1 construct: purchased Proteos
T1 sequence (P00797 67-406): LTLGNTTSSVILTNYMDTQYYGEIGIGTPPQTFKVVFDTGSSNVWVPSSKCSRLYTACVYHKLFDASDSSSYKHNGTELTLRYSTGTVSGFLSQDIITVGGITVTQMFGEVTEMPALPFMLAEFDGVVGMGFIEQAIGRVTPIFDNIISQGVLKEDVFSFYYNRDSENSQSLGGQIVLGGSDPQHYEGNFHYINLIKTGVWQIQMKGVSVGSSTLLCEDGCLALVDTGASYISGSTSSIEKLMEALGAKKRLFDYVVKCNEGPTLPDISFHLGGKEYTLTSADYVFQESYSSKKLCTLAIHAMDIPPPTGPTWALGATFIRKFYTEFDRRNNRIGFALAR
Experimental: (§1) The reactions were performed with appropriate buffer in a 96-well plate with a final assay volume of 250 μL and probe and enzyme concentrations of 1 μM and 100 nM, respectively. The reactions were incubated at 37 C for Renin and room temperature for the other proteases. The buffer for human neutrophil Cathepsin G (BIOMOL) was 100 mM Tris (pH 7.5), 1.6 M NaCl. The buffer for Cathepsin D (BIOMOL) was 100 mM Formic Acid (pH 3.3). The buffer for recombinant human neutrophil elastase (Innovative Research) was 100 mM Tris (pH 7.5). The buffer for plasmin (CalBiochem) and trypsin (Sigma) was 1× phosphate buffered saline (PBS) (pH 7.4). The buffer for recombinant human Renin (rhRenin) (Proteos) and recombinant rat Renin (rrRenin) (Proteos) was 50 mM MOPS (pH 7.4), 100 mM NaCl, with freshly prepared 0.002% tween-20. The plate was incubated at the appropriate temperature and the activity was monitored at 24 hours with a Gemini (Molecular Devices) plate reader at excitation wavelength 663 nm, emission 690 nm, and cut off 665 nm. The released fluorescent unit was determined by subtracting the fluorescence of the probe alone from the total fluorescence.

[4] = target: T2, human neutrophil Cathepsin G (Homo sapiens, UniProt P08311); experiment: Enzyme activation profile of R agents, Cathepsin G; assay type: biochemical; details: probe 1 μM, enzyme 100 nM, room temperature, 24 hours; FIG. 11
T2 construct: purchased BIOMOL
T2 sequence (P08311 21-244): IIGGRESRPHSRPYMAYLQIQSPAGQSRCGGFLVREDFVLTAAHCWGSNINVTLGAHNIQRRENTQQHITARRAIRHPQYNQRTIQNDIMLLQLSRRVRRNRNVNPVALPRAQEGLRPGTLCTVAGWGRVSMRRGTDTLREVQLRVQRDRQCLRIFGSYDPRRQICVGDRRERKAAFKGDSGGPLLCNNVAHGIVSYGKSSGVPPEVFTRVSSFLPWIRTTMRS
Experimental: as §1

[5] = target: T3, recombinant human neutrophil elastase (Homo sapiens, UniProt P08246); experiment: Enzyme activation profile of R agents, neutrophil elastase; assay type: biochemical; details: probe 1 μM, enzyme 100 nM, room temperature, 24 hours; FIG. 11
T3 construct: purchased Innovative Research
T3 sequence (P08246 30-267): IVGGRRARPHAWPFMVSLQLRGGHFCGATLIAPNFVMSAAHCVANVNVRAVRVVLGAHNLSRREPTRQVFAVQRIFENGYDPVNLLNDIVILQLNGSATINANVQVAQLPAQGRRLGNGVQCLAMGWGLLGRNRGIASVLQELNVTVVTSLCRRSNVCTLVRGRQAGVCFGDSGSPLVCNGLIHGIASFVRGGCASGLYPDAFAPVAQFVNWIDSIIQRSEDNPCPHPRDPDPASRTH
Experimental: as §1

trypsin = experiment: Enzyme activation profile of R agents, trypsin; assay type: biochemical; details: probe 1 μM, enzyme 100 nM, room temperature, 24 hours; FIG. 11
Experimental: as §1

[6] = system: kidneys of mice on a low sodium diet; experiment: Renal imaging, low sodium diet versus control diet; assay type: in vivo, C57BL6 mice; details: intravenous 0.2-4 nmol/mouse, imaging at 24 hrs, fluorescence molecular tomography; FIG. 12
Experimental: C57BL6 mice (Jackson Laboratories) were fed a sodium deficient diet (0.02% Na) and water was replaced with a solution of amiloride (0.1 mg/5 mL or 5 mg/kg/day) for 2 days. Control C57BL6 mice were fed regular chow diet and water. Imaging agents [F5]-Lys-His-Pro-Phe-His-Leu-Val-Ile-His-Lys(F5)-[OH] (SEQ ID NO:401) (R20) and ([F5]-Lys-His-Pro-Phe-His-Leu-Val-Ile-His-Lys(F5)-[NHmPEG20k] (SEQ ID NO:428) (R21) were injected intravenously at different concentrations (0.2, 0.7, 2 and 4 nmol/mouse) following 2 days on a low salt diet. Imaging was conducted at 24 hrs using a Fluorescence Molecular Tomography system (VisEn Medical, Woburn Mass.).

Substance: [F5]-His-Gly-Pro-Asn-Lys(F5)-[PEG20kDa] (F5-HGPNK(F5)-PEG20kDa; reading uncertain; also: printed as [F5]-His-Gly-Pro-Asn-Lys(F5)-[PEG20kDa]) [Agent Q94]
- probe signal in tibia region, ovariectomized versus sham mice [2]: increased probe signal detected in the tibia region

Substance: [F5]-Lys(Ac)-His-Pro-Phe-His-Leu-Val-Ile-His-Lys(F5)-[OH] (F5-K(Ac)HPFHLVIHK(F5)-OH; reading uncertain; also: printed as [F5]-Lys(Ac)-His-Pro-Phe-His-Leu-Val-Ile-His-Lys(F5)-[OH]) [Agent R23]
- activation by recombinant human renin (released fluorescent unit) [3]: activated primarily by recombinant human rennin

Substance: [F5]-Lys-His-Pro-Phe-His-Cha-Val-Ile-His-Lys(F5)-[OH] (F5-KHPFH[Cha]VIHK(F5)-OH; reading uncertain; also: printed as [F5]-Lys-His-Pro-Phe-His-Cha-Val-Ile-His-Lys(F5)-[OH]) [Agent R24]
- activation by recombinant human renin (released fluorescent unit) [3]: activated primarily by recombinant human rennin

Substance: [F5]-Lys-His-Pro-Phe-His-Leu-Val-Ile-His-Lys(F5)-[NHmPEG20k] (F5-KHPFHLVIHK(F5)-NHmPEG20k; reading uncertain; also: printed as [F5]-Lys-His-Pro-Phe-His-Leu-Val-Ile-His-Lys(F5)-[NHmPEG20k]) [Agent R21]
- activation by human neutrophil cathepsin (released fluorescent unit) [4]: activated
- activation by human neutrophil elastase (released fluorescent unit) [5]: activated
- activation by recombinant human renin (released fluorescent unit) [3]: activated
- kidney signal, low sodium diet versus control diet [6]: increased signal relative to the kidneys in the mice on the control diet
- activation by trypsin (released fluorescent unit) (trypsin): activated

Substance: [F5]-Lys-His-Pro-Phe-His-Leu-Val-Ile-His-Lys(F5)-[OH] (F5-KHPFHLVIHK(F5)-OH; reading uncertain; also: printed as [F5]-Lys-His-Pro-Phe-His-Leu-Val-Ile-His-Lys(F5)-[OH]) [Agent R20]
- activation by recombinant human renin (released fluorescent unit) [3]: activated primarily by recombinant human rennin
- kidney signal, low sodium diet versus control diet [6]: increased signal relative to the kidneys in the mice on the control diet

The remaining lines, values ahead:

- activation by Cathepsin K (released fluorescent unit) [1]: activated primarily by Cathepsin K
Substance: [F5]-His-Gly-Pro-Arg-Lys(F5)-[PEG20kDa] (F5-HGPRK(F5)-PEG20kDa; reading uncertain; also: printed as [F5]-His-Gly-Pro-Arg-Lys(F5)-[PEG20kDa]) [Agent Q92]

- activation by Cathepsin K (released fluorescent unit) [1]: activated primarily by Cathepsin K
Substance: [F5]-His-Gly-Pro-Asn-Lys(F5)-His-Gly-Pro-Asn-βA-[PEG20kDa] (F5-HGPNK(F5)HGPN[βAla]-PEG20kDa; reading uncertain; also: printed as [F5]-His-Gly-Pro-Asn-Lys(F5)-His-Gly-Pro-Asn-βA-[PEG20kDa]) [Agent Q93]

- activation by human neutrophil cathepsin (released fluorescent unit) [4]: activated
- activation by human neutrophil elastase (released fluorescent unit) [5]: activated
- activation by recombinant human renin (released fluorescent unit) [3]: activated
- activation by trypsin (released fluorescent unit) (trypsin): activated
Substance: [F5]-Lys-His-Pro-Phe-His-Leu-Val-Ile-His-Lys(F5)-[NHmPEG5k] (F5-KHPFHLVIHK(F5)-NHmPEG5k; reading uncertain; also: printed as [F5]-Lys-His-Pro-Phe-His-Leu-Val-Ile-His-Lys(F5)-[NHmPEG5k]) [Agent R27]
